Patent publication US20250197448A1 (UNIVERSITY OF ROCHESTER, published 2025)
Starred links: 1 amine or outer side, 2 acyl side, 3 side chain; linkers in the order of their positions; H or OH if unused. Positions of bridges follow the written chain, without caps; N, C: chain ends. Non-standard residues stand in square brackets, D forms with d. No end group written: not given here. O2beY = O-(2-bromoethyl)-tyrosine (p-2beF), reacts with Cys to form a thioether, O=C([C@H](Cc1ccc(OCCBr)cc1)N[*:1])[*:2]; pCaaF = p-(2-chloroacetamido)-phenylalanine, O=C(CCl)Nc1ccc(C[C@H](N[*:1])C(=O)[*:2])cc1

Legend:
[1] = biological target: T1, integrin αvβ3 on the surface of MDA-MB-231 breast cancer cells (human, UniProt P06756 31-1048; P05106 27-788); assay: flow cytometry on MDA-MB-231 cells, FITC anti-IgG1 Fc secondary
T1 construct: whole, on cells; also called integrin receptors on the cells
Method: Flow Cytometry Analysis. […] When confluent, media was aspirated, cells were washed once with 1×DPBS (no calcium, no magnesium) (Gibco). Adherent cells were detached from the petri dish with 1 mL of accutase (Gibco) pre-warmed to 37° C., followed by incubated for 5 min at 37° C. Cells were spun down using centrifugation. Supernatant was removed and cells were washed three times with staining buffer (1×PBS with 0.5% BSA). Cells were resuspended in Eppendorf tubes in 100 μL PBS at a concentration of […]. Cyclopeptibodies or Human anti-PD-L1 antibody (1 μg) (R&D Systems, MAB10355) in staining buffer were then added to the tubes with a concentration of 1.5 μM in 200 μL. Eppendorf tubes were then placed on the platform shaker for gently shaking for 1 hour at room temperature. After 1 hour, cells were spun down using centrifugation, then supernatant was removed. After washing three times, cells were resuspended in 200 μL of Fluorescein (FITC) AffiniPure Goat Anti-Human IgG with working concentration of 30 μg/mL (Jackson ImmunoResearch, 109-095-098), incubated in the dark for 30 min at room temperature. […] Then cells were analyzed on a BD FACS Accuri C6⁺ using a filter of 533/30. […]
The cyclopeptibody treated cells were then analyzed by flow cytometry using a procedure similar to that described for the PD-L1-targeting cyclopeptibodies in Example 9.

Sonic Hedgehog (Shh) [2] = biological target: T2, Sonic Hedgehog (Shh) (human, UniProt Q15465 24-197, limits assumed); assay: plate binding assay with immobilised Shh
Method: After washing (3×150 μL of PBS with 0.05% Tween-20), each well was incubated with 100 μL of purified FLAG-tagged cyclopeptibody at varying concentrations for 1 hour at room temperature. After washing three times with wash buffer, each well was incubated with 100 μL of 1:2500 dilution of HRP-conjugate mouse anti-FLAG polyclonal antibody (Sigma-Aldrich) for 1 hour at room temperature. After washing three times with wash buffer, 100 μL of 2.2 mM o-phenylenediamine dihydrochloride, 4.2 mM urea hydrogen peroxide, 100 mM dibasic sodium phosphate, and 50 mM sodium citrate, pH 5.0, were added to each well, followed by measurement of the absorbance at 450 nm after 10-20 min using a Tecan Infinite 1000 plate reader. Equilibrium dissociation constants (Kp) were determined by fitting the dose-response curves to a 1:1 binding isotherm equation via nonlinear regression. using SigmaPlot. Mean values and standard deviations were calculated from experiments performed in triplicate.
To prepare a Hedgehog-targeting cyclopeptibody, a Shh-binding cyclic peptide previously developed via affinity maturation of a HHIP loop 2 mimic (Owens A E et al., 2017, J. Am. Chem. Soc., 139:12559-12568) was genetically fused to the Fc domain of human IgG1 via a spacer (Entry 5, Table 1). The resulting cyclopeptibody (called L2-m5-Tras-Fc) was expressed, purified, and characterized as described in Example 4. […]

Sonic Hedgehog (Shh) [3] = biological target: T2, Sonic Hedgehog (Shh); assay: plate binding assay: immobilised Shh, FLAG-tagged binder titrated, HRP anti-FLAG detection

T1 sequence (P06756 31-1048, chain 1 of 2): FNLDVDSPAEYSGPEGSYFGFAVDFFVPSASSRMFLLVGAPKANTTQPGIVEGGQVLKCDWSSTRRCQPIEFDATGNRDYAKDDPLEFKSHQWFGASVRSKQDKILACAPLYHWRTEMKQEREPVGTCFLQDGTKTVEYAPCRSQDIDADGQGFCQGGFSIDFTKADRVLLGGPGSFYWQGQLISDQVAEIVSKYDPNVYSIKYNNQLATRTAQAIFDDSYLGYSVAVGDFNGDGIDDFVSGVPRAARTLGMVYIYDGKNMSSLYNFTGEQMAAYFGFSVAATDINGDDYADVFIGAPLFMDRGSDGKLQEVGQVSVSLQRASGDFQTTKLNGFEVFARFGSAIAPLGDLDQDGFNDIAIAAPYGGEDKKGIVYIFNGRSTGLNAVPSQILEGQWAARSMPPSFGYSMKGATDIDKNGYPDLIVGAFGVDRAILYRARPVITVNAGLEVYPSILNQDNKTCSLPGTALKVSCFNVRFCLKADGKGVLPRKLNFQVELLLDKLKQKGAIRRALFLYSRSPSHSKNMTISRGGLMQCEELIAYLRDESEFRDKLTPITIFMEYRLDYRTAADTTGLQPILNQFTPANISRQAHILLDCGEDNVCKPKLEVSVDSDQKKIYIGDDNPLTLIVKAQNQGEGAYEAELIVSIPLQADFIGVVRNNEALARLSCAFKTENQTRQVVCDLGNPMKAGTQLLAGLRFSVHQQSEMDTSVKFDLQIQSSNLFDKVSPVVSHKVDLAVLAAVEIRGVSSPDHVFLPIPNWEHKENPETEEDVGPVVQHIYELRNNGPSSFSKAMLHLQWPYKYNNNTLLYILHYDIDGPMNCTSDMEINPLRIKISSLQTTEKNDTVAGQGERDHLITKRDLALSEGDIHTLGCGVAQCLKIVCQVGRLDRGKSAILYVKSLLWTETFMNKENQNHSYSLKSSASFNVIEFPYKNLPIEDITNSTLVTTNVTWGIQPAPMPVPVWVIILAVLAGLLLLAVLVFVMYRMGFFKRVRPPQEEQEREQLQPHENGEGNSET
T1 sequence (P05106 27-788, chain 2 of 2): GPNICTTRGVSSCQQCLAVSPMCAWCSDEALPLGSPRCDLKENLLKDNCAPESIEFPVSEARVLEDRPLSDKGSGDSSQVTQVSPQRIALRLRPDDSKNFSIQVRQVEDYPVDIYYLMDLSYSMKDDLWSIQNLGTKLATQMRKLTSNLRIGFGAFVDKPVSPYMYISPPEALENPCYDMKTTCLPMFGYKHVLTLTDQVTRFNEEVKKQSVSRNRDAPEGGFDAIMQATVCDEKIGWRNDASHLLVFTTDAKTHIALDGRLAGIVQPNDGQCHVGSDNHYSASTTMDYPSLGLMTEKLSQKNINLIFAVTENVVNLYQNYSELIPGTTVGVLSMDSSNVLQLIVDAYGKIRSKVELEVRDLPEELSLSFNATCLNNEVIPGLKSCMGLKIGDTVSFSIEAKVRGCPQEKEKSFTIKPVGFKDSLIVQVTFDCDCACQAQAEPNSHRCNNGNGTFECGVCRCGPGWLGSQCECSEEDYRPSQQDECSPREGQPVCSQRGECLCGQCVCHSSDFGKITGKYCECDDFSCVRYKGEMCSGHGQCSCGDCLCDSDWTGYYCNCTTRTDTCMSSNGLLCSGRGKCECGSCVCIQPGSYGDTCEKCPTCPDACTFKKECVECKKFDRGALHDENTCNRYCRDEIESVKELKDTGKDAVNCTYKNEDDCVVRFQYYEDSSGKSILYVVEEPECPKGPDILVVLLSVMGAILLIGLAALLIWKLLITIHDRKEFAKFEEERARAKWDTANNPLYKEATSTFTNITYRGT

B1: RGD5R (pCaaF)-Tras-Fc (Fc fusion)
chain: DYKDDDDKGSGSCRDRGDY[pCaaF]QQQQQQIEGR-{Fc-H6}
modifications: thioether 13-20; also: dimeric through the Fc
notes: Integrin-targeting cyclopeptibody; dimeric through the human IgG1 Fc; also called cRGD5R (pCaaF)-Tras-Fc
**Q.** Does B1 bind [1]?
**A.** binds

B2: L2-m5-Tras-Fc (Fc fusion)
chain: DYKDDDDKGSGSTLSW[O2beY]EAMDMCTSSQQQQQQ-{Fc-H6}
modifications: thioether 17-23; also: dimeric through the Fc
notes: Cyclic peptide fused through a (Gln)6 spacer to human IgG1 Fc; dimeric through the Fc; made in E. coli; also called FLAG-(GS)2-TLSWZEAMDMCTSS-(Q)6-(Fc)^1-H6
**Q.** For B2, which “fold improved affinity against the same cyclic peptide fused to CBD” value (Sonic Hedgehog (Shh) [2]) is on record?
**A.** > 55 fold

**Q.** What about the Kd (Sonic Hedgehog (Shh) [3]) of the same binder?
**A.** 7 nM
